Measured values: patent publication US11673947B2, “Target tissue-specific antigen-binding molecule” (Chugai Seiyaku Kabushiki Kaisha, priority 2012, dated 2023)

Molecular target: T1, hIL-6R (Homo sapiens, UniProt P08887)
T1 sequence (P08887 20-355 limits assumed): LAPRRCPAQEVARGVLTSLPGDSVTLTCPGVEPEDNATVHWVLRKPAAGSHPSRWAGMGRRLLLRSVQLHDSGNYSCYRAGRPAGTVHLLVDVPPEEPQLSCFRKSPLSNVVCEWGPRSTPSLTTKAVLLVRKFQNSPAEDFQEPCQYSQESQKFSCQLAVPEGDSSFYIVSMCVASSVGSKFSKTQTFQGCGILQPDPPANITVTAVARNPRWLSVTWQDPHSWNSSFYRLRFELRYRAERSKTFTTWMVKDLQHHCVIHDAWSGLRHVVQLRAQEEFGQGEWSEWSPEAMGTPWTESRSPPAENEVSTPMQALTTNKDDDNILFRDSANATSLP
Experiment: IgG ELISA, binding to hIL-6R in the presence or absence of each small molecule, amino acid or amino acid metabolite
Protocol: Three types of antibodies obtained: 6RNMSC1-2_F02 and 6RNMSC1-3_G02, and GC413 were subjected to ELISA under the nine conditions described in Table 3. Meanwhile, each small molecule was appropriately prepared at the concentrations shown in Table 3 using the buffers indicated in Table 19. The antigen used was biotin-labeled hIL-6R.
First, a StreptaWell 96 microtiter plate (Roche) was coated at room temperature for one hour or more with 100 μl of PBS containing biotin-labeled hIL-6R. After washing with Wash buffer to remove unbound biotin-labeled hIL-6R from the plate, each well was blocked for one hour or more with 250 μl of Blocking Buffer. After Blocking Buffer was removed from each well, the purified IgGs were prepared to 2.5 μg/ml in Sample Buffer containing small molecules at the final concentrations shown in Table 3, and each was aliquoted at 100 μl into the plate. The plate was allowed to stand at room temperature for one hour to allow binding of each IgG to biotin-labeled hIL-6R in each well. After washing with Wash Buffer containing small molecules at the final concentrations shown in Table 3, an HRP-conjugated anti-human IgG antibody (BIOSOURCE) diluted with Sample Buffer containing the same small molecules was added to each well. The plate was incubated for one hour. Following wash with Wash Buffer containing each small molecule, the TMB single solution (ZYMED) was added to each well. The chromogenic reaction in the solution of each well was terminated by adding sulfuric acid. Then, the developed color was assessed by measuring absorbance at 450 nm.
6RNMSC1-2_F02 described in Example 14, which has antigen-binding activity in the presence of kynurenine, and negative control GC413 were subjected to ELISA under the seven conditions described in Table 18. Meanwhile, each small molecule was appropriately prepared at the concentrations shown in Table 18 using the buffers indicated in Table 4. The antigen used was biotin-labeled hIL-6R. ELISA was carried out using the method described in Example 11.

B1: 6RNMSC1-2_F02: antibody that binds to hIL-6R in the presence of kynurenine; SEQ ID NOs: 86 and 87 (antibody, listed as Homo sapiens, V domains shown)
VH: QVQLVQSGAEVKKPGSSVKVSCKASGGTFSSYAISWVRQAPGQGLEWMGGIIPIFGTANYAQKFQGRVTITADESTSTAYMELSSLRSEDTAVYYCARDAPVVARPRGAFDIWGQGTMVTVSS
VL: DIVMTQTPLSSPVTLGQPASISCRSSQSLVHSDGNTYLSWLQQRPGQPPRLLIHEISNRFSGVPDRFSGSGAGTNFTLKISRVEAEDVGVYYCMQATQFPRTFGQGTKVEIK
absorbance under condition 5 compared to condition 1 (Table 18: condition 5 (3-hydroxykynurenine solution)): the same high absorbance
absorbance under condition 7 as compared to condition 1 (Table 18: condition 7 (absence of small molecules) vs condition 1 (kynurenine solution)): markedly lower
absorbance under other conditions (Table 18: remaining conditions, incl. tryptophan): markedly lower
absorbance under condition 7 compared to condition 8 (condition 7 (100 μM kynurenine)): the same
absorbance under condition 9 as compared to condition 8 (condition 9 (in the absence of small molecules) vs condition 8 (complete small molecule cocktail solution)): markedly lower
absorbance under other conditions (remaining conditions of Table 3): markedly lower
